Our source for the ELISA signal (OD450) values is patent US20220089692A1.

The target in this assay is SARS-CoV-2 Spike RBD-His Recombinant Protein (SARS-CoV-2) (UniProt P0DTC2). The experiment in a line: monoclonal phage ELISA, SPIKE RBD coated 200 ng/well; helper phage control.

With M13KO7 auxiliary phage, the ELISA signal (OD450) was determined as 0.0434.
